This test has as its target T1, human plasma Kallikrein (Homo sapiens, UniProt P03952).
T1 construct: purchased Stratech, UK
In words: Phage selections against human plasma Kallikrein (abundance in selection output). As to conditions: Table 17; relative abundance in the total selection outputs. Type of test: binding. The procedure: Glycerol stocks of phage libraries were diluted to OD600=0.1 in 500 ml 2YT/chloramphenicol (30 μg/ml) cultures and phage were produced at 30° C. over night (15-16 hrs). Phage were purified and chemically modified as described in Heinis, et al., Nat Chem Biol 2009, 5 (7), 502-7 Biotinylated hPK (3 μg) (IHPKA, from human plasma, Innovative Research, Novi, Mich., USA) was incubated with 50 μl pre-washed magnetic streptavidin beads (Dynal, M-280 from Invitrogen, Paisley, UK) for 10 minutes at RT. Beads were washed 3 times prior to blocking with 0.5 ml washing buffer (10 mM Tris-Cl, pH 7.4, 150 mM NaCl, 10 mM MgCl2, 1 mM CaCl2) containing 1% BSA and 0.1% Tween 20 for 30 minutes at RT with rotation. […] Blocked beads were then mixed with the blocked chemically modified phage and incubated for 30 minutes on a rotating wheel at
RT. Beads were washed 8 times with washing buffer containing 0.1% Tween 20 and twice with washing buffer before incubation with 100 μl of 50 mM glycine, pH 2.2 for 5 minutes. Eluted phage were transferred to 50 μl of 1 M Tris-Cl, pH 8 for neutralization, incubated with 30 ml TG1 cells at OD600=0.4 for 90 minutes at 37° C. and the cells were plated on large 2YT/chloramphenicol plates. One or two additional rounds of panning were performed using the same procedures. In the second round of selection, neutravidin-coated magnetic beads were used to prevent the enrichment of streptavidin-specific peptides. The neutravidin beads were prepared by reacting 0.8 mg neutravidin (Pierce, Rockford, Ill., USA) with 0.5 ml tosyl-activated magnetic beads (Dynal, M-280 from Invitrogen, Paisley, UK) according to the supplier's instructions.
The WPAR (SEQ ID No. 19) motif identified from Example 1 was analysed in the context of the 06-34-03 peptide, in order to identify alternatives or improvements to the WPAR motif. A library was constructed where positions 1, 6, 7, 8, 9 &10 of 06-34-03 were fixed and positions 2, 3, 4 & 5 were randomised (see ‘Randomisation of peptide domains—Library construction’ in Methods above). Selections against human plasma Kallikrein were performed at a variety of stringencies (see Phage selections' in Methods above). All output sequences were identified and analysed for target binding (see ‘Randomisation of peptide domains—Assay of binding of individual clones’ in Methods above). Table 17 lists each unique sequence, its relative abundance in the selection output (frequency), and a rank number according to target binding strength.
T1 sequence (P03952 20-638): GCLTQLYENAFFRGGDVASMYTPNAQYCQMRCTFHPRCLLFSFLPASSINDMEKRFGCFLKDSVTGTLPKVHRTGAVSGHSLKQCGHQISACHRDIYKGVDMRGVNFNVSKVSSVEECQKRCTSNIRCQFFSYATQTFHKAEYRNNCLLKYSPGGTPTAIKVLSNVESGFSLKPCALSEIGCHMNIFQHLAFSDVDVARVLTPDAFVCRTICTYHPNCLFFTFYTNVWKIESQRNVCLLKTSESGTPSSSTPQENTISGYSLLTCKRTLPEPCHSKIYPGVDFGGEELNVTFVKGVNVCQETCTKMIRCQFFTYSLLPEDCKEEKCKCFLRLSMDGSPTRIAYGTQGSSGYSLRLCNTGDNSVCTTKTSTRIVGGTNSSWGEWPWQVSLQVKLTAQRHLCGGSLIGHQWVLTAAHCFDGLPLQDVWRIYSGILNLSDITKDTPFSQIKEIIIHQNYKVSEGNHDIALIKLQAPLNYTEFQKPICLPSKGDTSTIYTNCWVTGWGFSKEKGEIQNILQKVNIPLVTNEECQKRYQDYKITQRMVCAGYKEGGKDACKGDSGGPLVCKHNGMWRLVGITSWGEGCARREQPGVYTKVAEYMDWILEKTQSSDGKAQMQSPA
CSMPYRCTHQDLC returned an FREQUENCY of 2.

As to CSWWARCTHQDLC, the FREQUENCY worked out at 1.

CRFPFKCTHQDLC displayed an FREQUENCY of 1.

CSHPYRCTHQDLC came in with an FREQUENCY of 2.

CSHRRWCTHQDLC came in with an FREQUENCY of 1.

CSLPFKCTHQDLC showed an FREQUENCY of 1.

CSHPFRCTHQDLC had an FREQUENCY of 1.

In turn, CSYPIRCTHQDLC gave an FREQUENCY of 2.

For the sequence CSWSYRCTHQDLC, the FREQUENCY is 1.

Consider CSYPFRCTHQDLC, for which the FREQUENCY is listed as 1.

The record behind these values is patent US10118947B2, “Modulation of structured polypeptide specificity” (BICYCLE THERAPEUTICS LIMITED, priority 2013, dated 2018).
